From patent publication US20200157212A1 (Pfizer, published 2020)
Positions count from the first letter of the chain named.

T1: Human ROBO2 overexpressed on HEK293 cells (human, UniProt Q9HCK4 22-1378)
T1 construct: also called ROBO2 cells; native ROBO2
T1 sequence: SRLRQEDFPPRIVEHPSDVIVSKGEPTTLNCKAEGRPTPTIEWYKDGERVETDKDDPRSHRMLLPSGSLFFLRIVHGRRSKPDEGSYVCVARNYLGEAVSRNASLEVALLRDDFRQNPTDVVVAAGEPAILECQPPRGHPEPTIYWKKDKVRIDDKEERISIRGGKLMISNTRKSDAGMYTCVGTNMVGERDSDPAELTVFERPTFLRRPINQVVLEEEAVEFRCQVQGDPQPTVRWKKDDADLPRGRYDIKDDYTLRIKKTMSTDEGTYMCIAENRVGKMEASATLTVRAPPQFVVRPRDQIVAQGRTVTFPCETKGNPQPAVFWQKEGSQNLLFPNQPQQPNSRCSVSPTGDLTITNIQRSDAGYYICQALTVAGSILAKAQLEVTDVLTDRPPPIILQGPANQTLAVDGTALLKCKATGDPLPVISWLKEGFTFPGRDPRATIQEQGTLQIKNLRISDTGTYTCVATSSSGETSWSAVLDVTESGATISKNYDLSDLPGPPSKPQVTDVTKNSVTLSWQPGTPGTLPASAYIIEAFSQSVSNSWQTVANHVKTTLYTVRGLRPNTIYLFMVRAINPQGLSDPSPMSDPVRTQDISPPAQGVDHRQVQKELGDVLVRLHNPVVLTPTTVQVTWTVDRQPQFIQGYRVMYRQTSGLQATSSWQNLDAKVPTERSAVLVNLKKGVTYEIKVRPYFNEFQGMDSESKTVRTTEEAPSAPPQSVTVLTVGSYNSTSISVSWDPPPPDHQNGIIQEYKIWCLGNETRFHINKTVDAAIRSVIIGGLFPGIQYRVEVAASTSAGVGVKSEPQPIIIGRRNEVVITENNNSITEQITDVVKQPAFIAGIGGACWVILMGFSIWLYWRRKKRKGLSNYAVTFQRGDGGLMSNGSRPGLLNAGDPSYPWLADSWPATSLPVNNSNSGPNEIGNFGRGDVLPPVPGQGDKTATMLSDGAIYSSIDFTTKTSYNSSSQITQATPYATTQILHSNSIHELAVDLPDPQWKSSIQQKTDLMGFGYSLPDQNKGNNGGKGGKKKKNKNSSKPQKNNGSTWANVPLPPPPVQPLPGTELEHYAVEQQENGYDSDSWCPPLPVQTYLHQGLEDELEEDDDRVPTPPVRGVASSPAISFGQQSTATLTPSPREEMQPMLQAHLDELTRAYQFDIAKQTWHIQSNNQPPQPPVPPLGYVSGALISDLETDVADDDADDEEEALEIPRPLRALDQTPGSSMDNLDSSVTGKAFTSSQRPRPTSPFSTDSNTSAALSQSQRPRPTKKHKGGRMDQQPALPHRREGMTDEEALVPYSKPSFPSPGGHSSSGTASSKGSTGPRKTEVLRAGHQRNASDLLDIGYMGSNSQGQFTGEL

T2: Terbium (Tb) labeled-SNAP tagged ROBO2 expressed on HEK293 cells (Homo sapiens (Human), UniProt Q9HCK4 22-1378, terbium label on the SNAP tag)
T2 construct: also called Tb-labeled ROBO2 cells; ROBO2 expressing cells; not shown: SNAP tag
T2 sequence: T1 sequence

T3: Human ROBO2 Ig1-Ig2-His (human, UniProt Q9HCK4 31-220)
T3 construct: the His tag is named only in the SPR paragraphs; the Octet and ELISA paragraphs print 'ROBO2 Ig1-Ig2' without a tag; also called ROBO2 Ig1-2; Human ROBO2 Ig 1,2
T3 sequence: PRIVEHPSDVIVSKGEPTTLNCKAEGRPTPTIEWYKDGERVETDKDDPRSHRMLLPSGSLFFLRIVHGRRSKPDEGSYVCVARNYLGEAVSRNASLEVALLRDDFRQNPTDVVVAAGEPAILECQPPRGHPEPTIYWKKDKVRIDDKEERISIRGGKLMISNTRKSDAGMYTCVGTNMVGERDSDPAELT

B1: Ab112 (antibody, human IgG1, kappa, V domains shown)
VH: EVQLVQSGAEVKKPGASVKVSCKASGYTFTGYYMHWVRQAPGQGLEWMGWINPNSGATNFPQKFQGRVTMTRDTSITTAYMDLSRLRSDDTAVYYCARESGDDAFDIWGQGTMVTVSS
VL: DIVMTQSPSSLSASVGDRVTITCRASQSISSYLNWYQQKPGKAPKLLIYAASSLQSGVPSRFSGSGSGTDFTLTISSLQPEDFATYYCQQSVGLSFGGGTKVEIKR
notes: full-length human IgG
B2: Ab96 (antibody, human IgG1, kappa, V domains shown)
VH: B1 VH with N54K, S55N, A57D, N59E
VL: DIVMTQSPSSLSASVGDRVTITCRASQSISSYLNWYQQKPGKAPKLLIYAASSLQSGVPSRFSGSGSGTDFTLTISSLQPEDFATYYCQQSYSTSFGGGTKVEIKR
notes: full-length human IgG
B3: Ab123 (antibody, human IgG1, kappa, V domains shown)
VH: B1 VH
VL: B1 VL with S95F
notes: full-length human IgG
B4: Ab1 (antibody, human IgG1, kappa, V domains shown)
VH: B1 VH with Y33D
VL: B1 VL with S28K, V92Y, G93S, L94T
notes: full-length human IgG
B5: Ab13 (antibody, human IgG1, kappa, V domains shown)
VH: B1 VH with Y33D
VL: B1 VL with S56D, V92Y, G93S, L94T
notes: full-length human IgG
B6: Ab17 (antibody, human IgG1, kappa, V domains shown)
VH: B1 VH with Y33D
VL: B1 VL with S56E, V92Y, G93S, L94T
notes: full-length human IgG
B7: Ab21 (antibody, human IgG1, kappa, V domains shown)
VH: B1 VH with Y33D
VL: B1 VL with S56Y, V92Y, G93S, L94T
notes: full-length human IgG
B8: Ab9 (antibody, human IgG1, kappa, V domains shown)
VH: B1 VH with Y33D
VL: B1 VL with S28R, V92Y, G93S, L94T
notes: full-length human IgG

What follows are binders tested against T1, Human ROBO2 overexpressed on HEK293 … (assay: flow cytometry, Geo MFI ROBO2/ROBO1 HEK293 cells, 0.1 µg/ml).
Procedure: (§1) Binding of the antibodies was detected using a secondary fluorochrome conjugated anti-human IgG F(ab′)₂ antibody and samples were analyzed on a Fortessa cytometer (BD Biosciences). The fold ROBO2 selectivity was calculated as the geometric mean fluorescence intensity (Geo MFI) with ROBO2 cells/Geo MFI with ROBO1 cells. A fold change higher than 3 was considered to be ROBO2 specific (Table 2, Fold Selectivity). Some affinity matured clones had increased ROBO1 reactivity, for example Abcs 55, CTI-R2-10 and CTIR2-13.
HTRF assays were run with 5 nM d2-labeled SLIT2-N and antibodies were added at 1 nM. […] Antibodies derived from chain (Abcs series) or CDR shuffling (CTIR-2 series) were evaluated in 11-point, 5-fold dilution series with a top concentration of 1500 nM, N.T. = not tested; ^cFold selectivity was calculated as Geometric Mean Fluorescent Intensity (Geo MFI) of ROBO2/Geo MFI of ROBO1 binding. […] Outcomes: results are listed in order of assays listed in the table (left to right), I.A. = Improved Affinity

| Fold Selectivity for ROBO2/ROBO1 | Binder |
| --- | --- |
| 39.2 fold | B1 |
| 35 fold | B2 |
| 80.5 fold | B3 |

These binders were tested against T1, Human ROBO2 overexpressed on HEK293 … (assay: flow cytometry on HEK293 cells overexpressing human ROBO2; N.B. = No binding to ROBO2).
Procedure: as §1, with “The parental 93H2 antibody was highly ROBO2 specific, therefore affinity matured antibodies with single point neutralizing activity were screened by flow cytometry to ensure ROBO2 selectivity had been maintained. […] Binding” for “Binding”
Table 2 is a summary of assays used to screen antibodies against ROBO1 and/or ROBO2 to identify an antibody that specifically recognized ROBO2 but not ROBO1 with high affinity. […] Full dose curves were performed in the same assay for select antibodies. Recognition of native, surface expressed protein and ROBO2 selectivity was evaluated by flow cytometry. […] Anything with a value of greater than 3 was deemed to be selective for ROBO2. Outcomes of the various screening assays conducted for each antibody are highlighted in the final column.

| binding result | Binder |
| --- | --- |
| no binding (tested: 0.1 µg/ml) | B4 |
| no binding (tested: 0.1 µg/ml) | B5 |
| no binding (tested: 0.1 µg/ml) | B6 |
| no binding (tested: 0.1 µg/ml) | B7 |
| no binding (tested: 0.1 µg/ml) | B8 |

The binders below were run against T2, Terbium (Tb) labeled-SNAP tagged ROBO2 … (assay: HTRF, 5 nM d2-SLIT2-N on Tb-SNAP-ROBO2 HEK293 cells, 1 nM antibody).
Procedure: (§2) In this assay, terbium (Tb) labeled-SNAP tagged ROBO2 expressing HEK293 cells were incubated with 5 nM d2-labeled SLIT-2N in the presence of 1 nM anti-ROBO2 antibodies for 1 hour. After incubation, fluorescence at 665 nm and 620 nm was measured on an Envision multilabel plate reader. […] Maximal signal was defined as the HTRF ratio of Tb-labeled ROBO2 cells with d2-labeled SLIT2-N in the absence of antibody, the minimum signal was defined as the HTRF ratio of Tb-labeled ROBO2 expressing HEK293 cells only. One nanomolar (nM) parental antibody, 93H2, was unable to block the HTRF assay, therefore this concentration was selected to identify clones with a higher affinity than 93H2 (Table 2, HTRF Ratio column). […] Antibodies derived from chain (Abcs series) or CDR shuffling (CTIR-2 series) were evaluated in 11-point, 5-fold dilution series with a top concentration of 1500 nM (Table 2 HTRF IC₅₀).
HTRF assays were run with 5 nM d2-labeled SLIT2-N and antibodies were added at 1 nM. […] Antibodies derived from chain (Abcs series) or CDR shuffling (CTIR-2 series) were evaluated in 11-point, 5-fold dilution series with a top concentration of 1500 nM, N.T. = not tested; ^cFold selectivity was calculated as Geometric Mean Fluorescent Intensity (Geo MFI) of ROBO2/Geo MFI of ROBO1 binding.

| HTRF Ratio | Binder |
| --- | --- |
| 14000 | B4 |
| 13800 | B5 |
| 7300 | B1 |
| 13500 | B6 |
| 13100 | B7 |
| 3680 | B2 |
| 13600 | B8 |
| 7710 | B3 |

The binders below were run against T2, Terbium (Tb) labeled-SNAP tagged ROBO2 … (assay: HTRF competition, competitor d2-SLIT2-N, ROBO2 HEK293 cells).
Procedure: as §2, with “Antibodies generated as a result of the affinity maturation campaign were screened by numerous assays for neutralization of SLIT2-N binding, selective binding to ROBO2 over ROBO1, and inhibition of SLIT2-N functional activity (see Table 2). A ROBO2-SLIT2-N homogenous time resolved fluorescence (HTRF) assay was used to identify antibodies that were capable of blocking SLIT2-N binding to ROBO2. In” for “In”

| IC50 | Binder |
| --- | --- |
| 0.174 nM | B1 |
| 0.166 nM | B2 |
| 0.26 nM | B3 |

What follows are binders tested against T3, Human ROBO2 Ig1-Ig2-His (assay: Octet (BLI), relative Kd).

| Kd | Binder |
| --- | --- |
| 1.2 nM | B2 |
| 1.4 nM | B3 |
